Patent publication US20250320294A1
One block for each binder: values may come before it.

Experiments:
[1] = target: human-CD45RO-ECD-His (human) (UniProt P08575); test: ELISA, human-CD45RO-ECD-His-coated plates
[2] = target: human-CD45RO-ECD-His (human) (UniProt P08575); test: SPR, captured human-CD45RO-ECD-His, 1:1 binding
[3] = target: human-CD45RO-ECD-His (human) (UniProt P08575); test: SPR, captured human-CD45RO-ECD-His, 1:1 binding; row label printed 'Clone 023' a second time, taken as clone 028 by the order in paragraph 382

EC50 [1]: 0.144 nM
B1: anti-CD45 antibody clone 042 (antibody, V domains shown)
VH: EVQLQQSGAELVKPGASVKLSCTASGFNIKDTFMHWVKLRPEQGLEWIGRIDPANGYTKYDPRFQGKATIIADTSSNTAYLQLSSLTSEDTAVYYCASGEYYALDYWGQGTSVTVSS
VL: DIVLTQSPASLTVSLGQRATISCRASKSVSTSGYSYMHWYQQKPGQPPKLLIYLASNLESGVPARFSGSGSGTDFTLNIHPVEEEDAATYYCQHNRELPYTFGGGTKLEIK

EC50 [1]: 0.139 nM
Kd [2]: 79.5 nM
koff [2]: 0.000335 s⁻¹
kon [2]: 4220 M⁻¹ s⁻¹
B2: anti-CD45 antibody clone 031 (antibody, V domains shown)
VH: DVQLVESGGGLVQPGGSRKLSCAASGFTFSSFGMHWVRQAPEKGLEWVAYINSGSTTFYYADTVKGRFTISRDNPKNTLFLQMTSLGSEDTAMYYCARSATATWTMDYWGQGTSVTVSS
VL: NIMMTQSPSSLAVSAGEKVTMSCKSSQSVFVSSNQKNYLAWYQQKPGQSPKLLIYWASTRESAVPDRFTGSGSGTDFTLTIGSVQAEDLAVYYCHQYLSSWTFGGGTKLEIK

EC50 [1]: 0.0734 nM
Kd [2]: 3.72 nM
koff [2]: 0.000282 s⁻¹
kon [2]: 75800 M⁻¹ s⁻¹
B3: anti-CD45 antibody clone 027 (antibody, V domains shown)
VH: QVQLQQSAPELARPGASVRMSCKASGYTFTTYTMNWLTQRPGQGLEWIGYINPSSGYTEYNQKFKDKTSLTADTSSSTAYMQLSSLTSEHSAVYYCARASGYSSWFAYWGQGTLVTVSA
VL: NIVMTQTPKFLLVSAGDRVTITCKASQSVNNDVGWYQQKPGQSPKLLIYYASNRYTGVPDRFTGSGYGTDFTFTISTVQAEDLAVYFCQQDYNSPLTFGAGTKLELK

EC50 [1]: 0.0319 nM
Kd [3]: 39.9 nM
koff [3]: 0.000591 s⁻¹
kon [3]: 14800 M⁻¹ s⁻¹
B4: anti-CD45 antibody clone 028 (antibody, V domains shown)
VH: QVQLQQSGAELARPGASVKMSCKASGYTFTFYAILWVKQMPGQGLEWIGFINPSSGYTSYNQKFKDKATLTADKSSSTAYMQLSSLTSEDSAVYYCARDYGLDYWGQGTTLAVSS
VL: DIVMTQAAPSVPVTPGESVSISCRSSKSLLHSNGNTYLYWFLQRPGQSPQLLIYRMSNLASGVPDRFSGSGSGTAFTLGISRVEAGDVGVYYCMQHLEYPFTFGSGTKLEIK
